Experimental findings from the supplement of paper PMC10567573 are described below.

± gives the standard deviation.

The nature of this data set: protein stability index of a GFP-peptide fusion (GPS, HEK-293T) (PSI 1-6); higher = more stable. As to conditions: c terminus: a fixed tail appended.
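Further: 24-mer peptide tiles fused after GFP, lentivirally expressed, FACS-sorted into six equal bins by GFP/DsRed ratio, decoded by Illumina sequencing, PSI is the read-weighted mean bin number.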

For the sequence ANNDHTVLSLACAGGHLAVVELLL [ANKRD17], the protein stability index (treatment: DMSO) was determined as 2.41 ± 0.25 and the protein stability index (treatment: MLN4924 1 uM, 8 h) is 2.42 ± 0.24.

Turning to ANRPDPNTPMEETVRAMTHVINQG [KCNAB2], the protein stability index is, setting by setting: (treatment: DMSO) 4.75 ± 0.13; (treatment: MLN4924 1 uM, 8 h) 4.78 ± 0.12.

The sequence APGSSVEYQCQNLYQLEGNNQITC [CFHR2] gave a protein stability index (treatment: DMSO) of 3.88 ± 0.12 and a protein stability index (treatment: MLN4924 1 uM, 8 h) of 3.88 ± 0.17.

For APKKELINIKGISEAKADKILAEA [RAD51], the protein stability index reads like this: (treatment: DMSO) 4.05 ± 0.25; (treatment: MLN4924 1 uM, 8 h) 4.49 ± 0.46.

For the sequence APRGTPDPGLGEGPALWLRSTCVY [PLEKHN1], the protein stability index (treatment: DMSO) was found to be 2.43 ± 0.24 and the protein stability index (treatment: MLN4924 1 uM, 8 h) worked out at 2.34 ± 0.27.

In the case of APVLVAAPHSTFFDPIVLLPCDLP [LPCAT4], the protein stability index was 2.25 ± 0.27 (treatment: DMSO) and 2.47 ± 0.32 (treatment: MLN4924 1 uM, 8 h).

As to ARAEQEEEFISNTLFKKIQALQKE [CCDC6], the protein stability index is 3.48 ± 0.41 (treatment: DMSO) and 3.77 ± 0.34 (treatment: MLN4924 1 uM, 8 h).

With ARASEGSDSGSDKSLEGGGTAFDA [SMG5], the protein stability index was found to be 5.48 ± 0.3 (treatment: DMSO) and 5.37 ± 0.45 (treatment: MLN4924 1 uM, 8 h).

As for ARCTAGTLHNLSHHREGLLAIFKS [CTNNB1], the protein stability index was determined as 2.48 ± 0.19 (treatment: DMSO) and 2.45 ± 0.19 (treatment: MLN4924 1 uM, 8 h).

In the case of ARLMRSNYPPPLSSAALRGAGPTR [C6orf223], the protein stability index by setting is: (treatment: DMSO) 3.79 ± 0.2; (treatment: MLN4924 1 uM, 8 h) 3.96 ± 0.14.

For the sequence ARVLDRRGCSRVEGGGTSLHVACE [ANKRD9], the protein stability index is, setting by setting: (treatment: DMSO) 3.57 ± 0.27; (treatment: MLN4924 1 uM, 8 h) 3.47 ± 0.46.

Turning to ASFDVCESVDEAGGSGPAGLRAST [RHOBTB2], the protein stability index by setting is: (treatment: DMSO) 5.24 ± 0.21; (treatment: MLN4924 1 uM, 8 h) 5.02 ± 0.15.

As to ASKSKGAAVKLADFGLAIEVQGDQ [CAMK2D], the protein stability index is, setting by setting: (treatment: DMSO) 4.13 ± 0.37; (treatment: MLN4924 1 uM, 8 h) 4.37 ± 0.3.

In the case of ASRLLTTALTSFCAKYTYPVCSAL [FANCE], the protein stability index was 3.29 ± 0.58 (treatment: DMSO) and 3.34 ± 0.49 (treatment: MLN4924 1 uM, 8 h).

For AVGGRNAAGELPTVECYNPRTNEW [KLHL13], the protein stability index (treatment: DMSO) stood at 4.2 ± 0.13 and the protein stability index (treatment: MLN4924 1 uM, 8 h) worked out at 4.33 ± 0.13.

Turning to AVLGRYVPGLLLSYLMLVTVMMWP [RETREG3], the protein stability index runs as follows: (treatment: DMSO) 3.41 ± 0.13; (treatment: MLN4924 1 uM, 8 h) 3.1 ± 0.47.

For the sequence AWGPGTLAAAPEGLEDAGLDPHFV [TEX19], the protein stability index by setting is: (treatment: DMSO) 4.31 ± 0.25; (treatment: MLN4924 1 uM, 8 h) 4.37 ± 0.26.

In the case of AYDLSSVIASGSSVGHNNLIPLAN [CARM1], the protein stability index runs as follows: (treatment: DMSO) 3.23 ± 0.4; (treatment: MLN4924 1 uM, 8 h) 3.09 ± 0.28.

On to AYEYEREGLYEQAFQLLRRFVQAE [TRADD], for which the protein stability index is, setting by setting: (treatment: DMSO) 2.27 ± 0.31; (treatment: MLN4924 1 uM, 8 h) 2.48 ± 0.26.

Consider CCSRYLCMGAMSLFLPCLLCYPPA [SPRY1], for which the protein stability index (treatment: DMSO) came out at 2.82 ± 0.47 and the protein stability index (treatment: MLN4924 1 uM, 8 h) came out at 2.58 ± 0.63.

Take CDEARNHYGGVVSLIPLILDLMKE [SPACA9]: the protein stability index (treatment: DMSO) was 2.3 ± 0.29 and the protein stability index (treatment: MLN4924 1 uM, 8 h) is 2.36 ± 0.23.

As to CGPQWEMSEWSECTAKCGERSVVT [ADAMTSL2], the protein stability index is, setting by setting: (treatment: DMSO) 2.92 ± 0.42; (treatment: MLN4924 1 uM, 8 h) 3 ± 0.52.

In the case of CISDELLENLCENASTLRTINIKC [FBXO39], the protein stability index is 2.47 ± 0.2 (treatment: DMSO) and 2.69 ± 0.28 (treatment: MLN4924 1 uM, 8 h).

In the case of CLGLSYDGLLGDNQIMPKTGFLII [MAGEA6], the protein stability index was found to be 3.01 ± 0.6 (treatment: DMSO) and 2.49 ± 0.44 (treatment: MLN4924 1 uM, 8 h).

CLHHICTNYNNVCRKFPRDMKAMS [RHOBTB2]: the protein stability index worked out at 2.26 ± 0.18 (treatment: DMSO) and 2.42 ± 0.067 (treatment: MLN4924 1 uM, 8 h).

CLLVLRLFLGIHVFLVSCALPDSV [AUP1]: the protein stability index runs as follows: (treatment: DMSO) 3.22 ± 0.2; (treatment: MLN4924 1 uM, 8 h) 3.09 ± 0.05.

In the case of CLSRHSINPYSNRESRILFSTWNL [DFFB], the protein stability index by setting is: (treatment: DMSO) 2.28 ± 0.27; (treatment: MLN4924 1 uM, 8 h) 2.15 ± 0.3.

Take CNDLFKVNPFQLQQFRADPSTASL [TIAF1]: the protein stability index is 2.71 ± 0.063 (treatment: DMSO) and 2.78 ± 0.18 (treatment: MLN4924 1 uM, 8 h).

Take CQTGGVEDQEEWHAQVVEELSNFK [ZBED1]: the protein stability index came out at 5.73 ± 0.26 (treatment: DMSO) and 5.6 ± 0.16 (treatment: MLN4924 1 uM, 8 h).

In turn, CRETGSFLDLFRYRVLLGHTLILM [SLC22A15] came in with a protein stability index (treatment: DMSO) of 2.97 ± 0.59 and a protein stability index (treatment: MLN4924 1 uM, 8 h) of 2.45 ± 0.38.

For CRLKRCVDIGMMKEFILTDEEVQR [VDR], the protein stability index is, setting by setting: (treatment: DMSO) 2.49 ± 0.28; (treatment: MLN4924 1 uM, 8 h) 2.53 ± 0.13.

For CRRSVRLALGRERLGEIHTLPLPA [SPSB1], the protein stability index (treatment: DMSO) was 3 ± 0.17 and the protein stability index (treatment: MLN4924 1 uM, 8 h) is 2.98 ± 0.11.

Regarding CTAGNFMECQPESSISHRFHKDCA [EHMT1], the protein stability index was 2.96 ± 0.25 (treatment: DMSO) and 3.03 ± 0.27 (treatment: MLN4924 1 uM, 8 h).

Turning to DAHLVLDGEEIPVQKNILAAASPY [GAN], the protein stability index is, setting by setting: (treatment: DMSO) 4.18 ± 0.12; (treatment: MLN4924 1 uM, 8 h) 4.16 ± 0.3.

In the case of DALISVSYTIITPLFNPMIYSLRN [OR10K2], the protein stability index amounted to 4.18 ± 0.26 (treatment: DMSO) and 3.35 ± 0.75 (treatment: MLN4924 1 uM, 8 h).

Take DAPPVELQLLHECSPSQMDLLCAQ [FANCE]: the protein stability index is 4.31 ± 0.054 (treatment: DMSO) and 4.63 ± 0.25 (treatment: MLN4924 1 uM, 8 h).
